What was measured:
[1] = target: HIV-1 matrix protein (MA), cleaved, in mature cHIV particles (HIV-1); assay: cryo-EM structure
[2] = target: HIV-1 Gag polyprotein, uncleaved, in immature virus particles (MA domain of Gag) (HIV-1); assay: cryo-EM structure

Substance | stoichiometry N [1] | stoichiometry N [2]
HIV-1 matrix protein (MA), cleaved, in mature cHIV particles (natural protein) | 3 | 
HIV-1 Gag polyprotein, uncleaved, in immature virus particles (MA domain of Gag) (natural protein) |  | 3
